Source: patent publication US20250043302A1, “MUTATED HYDROXYPHENYLPYRUVATE DIOXYGENASE POLYPEPTIDE, AND CODING GENE AND USE THEREOF” (BEIJING DABEINONG BIOTECHNOLOGY CO., LTD., priority 2021, published 2025)

How the values were obtained:
Type in all cases: in vivo
[1] = tested on: Arabidopsis thaliana T1 plants; assay: Topramezone tolerance of transgenic Arabidopsis thaliana T1 plants (spray, bleached leaf area grade, damage score); details: Table 10; for Classification and statistics of the grade of pesticide damage Grade 0: number of plants at grade 0; for Classification and statistics of the grade of pesticide damage Grade 1: number of plants at grade 1; for Classification and statistics of the grade of pesticide damage Grade 2: number of plants at grade 2; for Classification and statistics of the grade of pesticide damage Grade 3: number of plants at grade 3; for Scores: pesticide damage score
Method in brief: (§1)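 T1 transformants selected by glufosinate; 18-day-old plants, with empty-vector and wild-type controls, sprayed with topramezone (25–200 g ai/ha), isoxaflutole (35–280 g ai/ha) or mesotrione (52.5–420 g ai/ha), water as 0×. Bleached leaf area fraction scored at 7 DAT as grades 0–3.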

[2] = tested on: Arabidopsis thaliana T1 plants; assay: Isoxaflutole tolerance of transgenic Arabidopsis thaliana T1 plants (spray, bleached leaf area grade, damage score); details: Table 11; for Classification and statistics of the grade of pesticide damage Grade 0: number of plants at grade 0; for Classification and statistics of the grade of pesticide damage Grade 1: number of plants at grade 1; for Classification and statistics of the grade of pesticide damage Grade 2: number of plants at grade 2; for Classification and statistics of the grade of pesticide damage Grade 3: number of plants at grade 3; for Scores: pesticide damage score;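 on Scores: Weighted damage index from 0 to 100 where higher means more damage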
Method in brief: as §1

[3] = tested on: Arabidopsis thaliana T1 plants; assay: Mesotrione tolerance of transgenic Arabidopsis thaliana T1 plants (spray, bleached leaf area grade, damage score); design: Scores: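 damage score 0-100 computed as Σ(N×S)/(T×M)×100 over grades 0-3 with higher meaning more damage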; details: Table 12; for Classification and statistics of the grade of pesticide damage Grade 0: number of plants at grade 0; for Classification and statistics of the grade of pesticide damage Grade 1: number of plants at grade 1; for Classification and statistics of the grade of pesticide damage Grade 2: number of plants at grade 2; for Classification and statistics of the grade of pesticide damage Grade 3: number of plants at grade 3; for Scores: pesticide damage score
Method in brief: as §1

B1: HPPDm-9-02: nucleotide sequence encoding AsHPPDm-A106G-K351N-F372A-F383W with mutated C-terminal; vector DBN11790 (nucleic acid)
DNA: ATGCCACCTACTCCAGCTACAGCTACTGGTGCTGCTGCTGCTGCCGTTACTCCTGAGCACGCTGCCAGGTCATTCCCCAGGGTGGTTCGCGTGAACCCCAGATCTGATAGGTTCCCAGTTCTGAGCTTCCACCATGTTGAGCTGTGGTGCGCTGATGCTGCTTCTGCTGCTGGCAGGTTCTCTTTCGCTCTTGGTGCTCCACTCGCTGCTAGATCTGATCTGTCTACAGGAAATAGCGCTCATGCCTCACTCCTGCTTCGCTCAGGTGCTTTGGCCTTCCTCTTCACCGCTCCATATGCTCCCCCACCTCAGGAGGGTGCTACTGCTGCTGCTACAGCCTCCATTCCAAGCTTCTCAGCTGATGCCGCTAGAACCTTCGCTGCTGCTCATGGACTTGCCGTGAGGTCTGTTGGTGTTCGCGTGGCTGATGCTGCTGAGGCTTTCAGAGTTTCCGTTGCCGGCGGAGCTAGGCCAGCTTTCGCTCCTGCTGATTTGGGACATGGTTTCGGCCTGGCTGAGGTTGAGCTTTACGGTGACGTGGTTCTCCGCTTCGTGTCTTACCCAGATGAGACTGACCTGCCTTTCCTTCCCGGCTTCGAGAGAGTTTCCTCTCCTGGTGCCGTGGATTACGGCCTGACAAGGTTCGACCACGTGGTTGGAAACGTTCCCGAGATGGCTCCAGTGATCGATTACATGAAGGGCTTCCTTGGATTCCATGAGTTCGCCGAGTTCACTGCTGAGGACGTGGGAACCACTGAGTCCGGTTTGAACTCTGTGGTTCTCGCCAACAATTCTGAGGCTGTTTTGCTCCCTCTGAATGAGCCTGTGCATGGAACCAAGAGGAGAAGCCAGATTCAAACTTACCTGGAGTACCACGGTGGCCCTGGAGTTCAGCATATCGCCCTTGCTTCTAATGATGTGTTGCGCACACTCAGAGAGATGCGCGCCAGAACCCCCATGGGAGGTTTCGAGTTCATGGCCCCACCACAGGCTAAGTACTACGAGGGCGTTAGAAGGATTGCTGGAGACGTGTTGAGCGAGGAGCAGATCAATGAGTGCCAAGAGCTGGGTGTTCTTGTGGATAGGGATGACCAGGGCGTTCTGCTTCAAATTGCCACTAAGCCAGTGGGCGACCGCCCTACATTCTGGCTTGAGATGATTCAAAGAATCGGCTGCATGGAGAAGGATGAGGTTGGACAGGAGTACCAAAAGGGCGGATGCGGTGGCTTCGGAAAGGGTAACTTCAGCGAGTTGTTCAAGTCAATCGAGGAGTATGAGAAGACCTTGGAGGCCAAGCAGCTCGTGGGTTGA
modifications: mutated C-terminus; HPPDm-9-02 Nucleotide Sequence
notes: vector DBN11790
16: Classification and statistics of the grade of pesticide damage Grade 0 ([1]; topramezone 100 g ai/ha (4×)) | Classification and statistics of the grade of pesticide damage Grade 0 ([1]; topramezone 200 g ai/ha (8×)) | Classification and statistics of the grade of pesticide damage Grade 0 ([2]; isoxaflutole 140 g ai/ha (2×)) | Classification and statistics of the grade of pesticide damage Grade 0 ([2]; isoxaflutole 280 g ai/ha (4×)) | Classification and statistics of the grade of pesticide damage Grade 0 ([3]; mesotrione 210 g ai/ha (2×)) | Classification and statistics of the grade of pesticide damage Grade 0 ([3]; mesotrione 420 g ai/ha (4×))
0: Classification and statistics of the grade of pesticide damage Grade 1 ([1]; topramezone 100 g ai/ha (4×)) | Classification and statistics of the grade of pesticide damage Grade 2 ([1]; topramezone 100 g ai/ha (4×)) | Classification and statistics of the grade of pesticide damage Grade 3 ([1]; topramezone 100 g ai/ha (4×)) | Scores ([1]; topramezone 100 g ai/ha (4×)) | Classification and statistics of the grade of pesticide damage Grade 1 ([1]; topramezone 200 g ai/ha (8×)) | Classification and statistics of the grade of pesticide damage Grade 2 ([1]; topramezone 200 g ai/ha (8×)) | Classification and statistics of the grade of pesticide damage Grade 3 ([1]; topramezone 200 g ai/ha (8×)) | Scores ([1]; topramezone 200 g ai/ha (8×)) | Classification and statistics of the grade of pesticide damage Grade 1 ([2]; isoxaflutole 140 g ai/ha (2×)) | Classification and statistics of the grade of pesticide damage Grade 2 ([2]; isoxaflutole 140 g ai/ha (2×)) | Classification and statistics of the grade of pesticide damage Grade 3 ([2]; isoxaflutole 140 g ai/ha (2×)) | Scores ([2]; isoxaflutole 140 g ai/ha (2×)) | Classification and statistics of the grade of pesticide damage Grade 1 ([2]; isoxaflutole 280 g ai/ha (4×)) | Classification and statistics of the grade of pesticide damage Grade 2 ([2]; isoxaflutole 280 g ai/ha (4×)) | Classification and statistics of the grade of pesticide damage Grade 3 ([2]; isoxaflutole 280 g ai/ha (4×)) | Scores ([2]; isoxaflutole 280 g ai/ha (4×)) | Classification and statistics of the grade of pesticide damage Grade 1 ([3]; mesotrione 210 g ai/ha (2×)) | Classification and statistics of the grade of pesticide damage Grade 2 ([3]; mesotrione 210 g ai/ha (2×)) | Classification and statistics of the grade of pesticide damage Grade 3 ([3]; mesotrione 210 g ai/ha (2×)) | Scores ([3]; mesotrione 210 g ai/ha (2×)) | Classification and statistics of the grade of pesticide damage Grade 1 ([3]; mesotrione 420 g ai/ha (4×)) | Classification and statistics of the grade of pesticide damage Grade 2 ([3]; mesotrione 420 g ai/ha (4×)) | Classification and statistics of the grade of pesticide damage Grade 3 ([3]; mesotrione 420 g ai/ha (4×)) | Scores ([3]; mesotrione 420 g ai/ha (4×))
Highly resistant: Resistance evaluation ([1]; topramezone 100 g ai/ha (4×)) | Resistance evaluation ([1]; topramezone 200 g ai/ha (8×)) | Resistance evaluation ([2]; isoxaflutole 140 g ai/ha (2×)) | Resistance evaluation ([2]; isoxaflutole 280 g ai/ha (4×)) | Resistance evaluation ([3]; mesotrione 210 g ai/ha (2×)) | Resistance evaluation ([3]; mesotrione 420 g ai/ha (4×))
